Results on 1 molecule are retold here after patent publication US9745384B2, “Peptides useful for modulating histone demethylase function” (The Brigham and Women's Hospital, Inc., priority 2012, dated 2017).

This assay addresses T1, LSD2 (Homo sapiens, UniProt Q8NB78).
T1 construct: 0.15 μM or 1.2 μM purified LSD2 (residues 51-822); His6 (cleaved yes); made in house; host or cells: Sf9 insect cells (baculovirus)
T1 sequence (Q8NB78 51-822): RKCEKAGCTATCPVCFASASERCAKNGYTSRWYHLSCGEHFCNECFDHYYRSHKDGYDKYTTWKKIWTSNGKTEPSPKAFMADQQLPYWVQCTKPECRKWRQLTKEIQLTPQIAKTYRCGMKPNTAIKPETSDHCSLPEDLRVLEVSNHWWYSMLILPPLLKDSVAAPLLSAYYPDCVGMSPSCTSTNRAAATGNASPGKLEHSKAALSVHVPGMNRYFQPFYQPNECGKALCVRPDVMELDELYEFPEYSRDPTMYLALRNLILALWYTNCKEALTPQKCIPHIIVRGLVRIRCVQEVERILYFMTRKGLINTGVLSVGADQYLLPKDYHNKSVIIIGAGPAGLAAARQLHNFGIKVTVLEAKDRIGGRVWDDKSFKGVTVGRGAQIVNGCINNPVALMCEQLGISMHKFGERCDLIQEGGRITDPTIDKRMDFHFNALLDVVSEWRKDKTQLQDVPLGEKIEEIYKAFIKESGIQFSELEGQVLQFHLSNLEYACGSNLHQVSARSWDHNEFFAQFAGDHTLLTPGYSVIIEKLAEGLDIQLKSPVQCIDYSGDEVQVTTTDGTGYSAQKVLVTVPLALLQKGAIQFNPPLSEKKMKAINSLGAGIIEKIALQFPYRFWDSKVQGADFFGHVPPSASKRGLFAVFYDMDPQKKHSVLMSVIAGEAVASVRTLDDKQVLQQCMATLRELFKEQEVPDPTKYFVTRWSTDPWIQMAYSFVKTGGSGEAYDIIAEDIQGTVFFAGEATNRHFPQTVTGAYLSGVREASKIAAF
The assay is described as follows: H3K4me2 peptide demethylation assay (MALDI-TOF). Format: biochemical. Particulars: shorter H3K4me2 peptide residues 1-15. The procedure:
FIGS. 12A-12F depict analysis of LSD2 demethylation activity and mutational analysis. […] Demethylation products were analyzed by MALDI-TOF mass spectrometry. 0.15 μM LSD2 can efficiently demethylate the longer H3K4me2 peptide (1-21), but has no detectable activity on the shorter histone peptide (1-15), demethylation of which requires high concentration (1.2 μM) of LSD2. […] It indicates the importance of histone residue 16-21 to LSD2 enzymatic activity and NPAC cofactor activity, supporting our model that NPAC assists enzyme-substrate interactions by creating a new binding site for H3 L20 in the LSD2-NPAC complex. FIG. 12C depicts LSD2 demethylation and NPAC cofactor activity on longer H3K4me2 peptide (1-44). 2 μg H3K4me2 peptide (1-44) were incubated with 0.8 μg GST-LSD2 (1-822) and 2 μg wild-type or F217A full-length GST-NPAC proteins in 100 μl demethylation buffer (50 mM Tris-HCl pH 8.1, 1 mM NAD^+, 0.1 Unit formaldehyde dehydrogenase) at 30° C. for 2 hours. LSD2 alone can efficiently demethylate di-methyl H3K4 of the long peptides, converting large majority of the substrate to H3K4me1. Wild-type NPAC protein can efficiently stimulate LSD2 demethylation, producing unmethylated H3K4. F217A mutation impairs NPAC cofactor activity as expected, showing little stimulatory effect if any. To compare demethylation efficiency, 1.2 μg bio-H3K4me2 peptide (H3 residue 1-21, equal molar ratio to 2 ug H3K4me2 1-44 peptide in above assays) was demethylated by LSD2 under identical conditions (bottom panel). […] The cofactor activity of wild-type NPAC was readily detected under the same conditions. […] Importantly, the demethylation of nucleosomal H3K4me2 was much more efficient in the presence of wild-type NPAC under same conditions (comparing lane 3 verse 4, and 8 verse 9). It is noted that no obvious cofactor effect of F217A peptide or linker regions was detected in nucleosome and peptide demethylation assays (FIG. 6E and data not shown). FIG. 12F depicts Coomassie staining of NPAC proteins used in histone demethylase assays. FIG. 12F discloses “His6” as SEQ ID NO: 75.
Histone peptides are purchased from Millipore, or custom synthesized. The purity of all peptides are >95% as determined by HPLC and mass spectrometry. In vitro histone demethylase activity assays were performed as described (Shi et al., 2004). Briefly, purified LSD2 and NPAC derived peptides or proteins were incubated with 50 μM H3K4me2 peptides (residues 1-21) in 50 mM Tris-HCl, pH 8.5, 50 mM KCl, 5 mM MgCl2, 5% glycerol at 37° C. for 30 min. The products were desalted through a C18 Ziptip (Millipore) and analyzed on a MALDI-TOF micro MX mass spectrometer (ABI 4700, Applied Biosystems). The laser intensity was kept constant for all of the samples. All MS data were processed using Data Explorer 4.5 (Applied Biosystems). […]

B1: NPAC: full-length human NPAC/GLYR1 (protein ID: Q49A26), recombinant, LSD2 cofactor (protein)
chain: MAAVSLRLGDLVWGKLGRYPPWPGKIVNPPKDLKKPRGKKCFFVKFFGTEDHAWIKVEQLKPYHAHKEEMIKINKGKRFQQAVDAVEEFLRRAKGKDQTSSHNSSDDKNRRNSSEERSRPNSGDEKRKLSLSEGKVKKNMGEGKKRVSSGSSERGSKSPLKRAQEQSPRKRGRPPKDEKDLTIPESSTVKGMMAGPMAAFKWQPTASEPVKDADPHFHHFLLSQTEKPAVCYQAITKKLKICEEETGSTSIQAADSTAVNGSITPTDKKIGFLGLGLMGSGIVSNLLKMGHTVTVWNRTAEKCDLFIQEGARLGRTPAEVVSTCDITFACVSDPKAAKDLVLGPSGVLQGIRPGKCYVDMSTVDADTVTELAQVIVSRGGRFLEAPVSGNQQLSNDGMLVILAAGDRGLYEDCSSCFQAMGKTSFFLGEVGNAAKMMLIVNMVQGSFMATIAEGLTLAHVTGQSQQTLLDILNQGQLASIFLDQKCQNILQGNFKPDFYLKYIQKDLRLAIALGDAVNHPTPMAAAANEVYKRAKALDQSDNDMSAVYRAYIH
In the case of B1, the “Cofactor activity: stimulation of LSD2 demethylation of H3K4me2 peptide” value was “did not detect NPAC cofactor activity”.
